# Results as given in the DeepSol protein solubility set.
# Test: soluble on expression in E. coli; label from the status in PepcDB or PDB records
row,Sequence,soluble on expression in E. coli
1,MLLRKFCGIEKTDNGYLIHGDAGDIKLVFMTDDIIRIRVSFDRKFKEASYALVTTAWEDELDELFQEERTRIQAKDVVCEEKEDALIFHTTALKLVMKKQPIQFLLYDVEGKLIYNDLKERAFDQDQLGRVTHYSEIHADTDHFYGFGEKTGHLDKKGRHLRMSPKDAIGADPEFGEPLYKHVPFYIRVNEENLHALGLFYNNSYDAVFDMGNERSGYWDSYCYYQADGGDIDLFLINGPKMASVLERYTYLTGRQAMPTKQSLGYTASTMYYAELEQNCDEEIYKVIQKHFDEKIYIDNFWLASGYSSGEEDNLRYVFNWNKKRFPDPEGFFEKMEQEMGINVIPNMKPGILKNHPYRKVFEQYDAFVKTPDKAEDYVGRWWGGEGRFVDFTKKAGRDAWKELLKKNLMAKGMRTVWNDNCEYDGVEDRNAYCDHEGMGGTMAELKIIQSNMMAYTGKEALKEVYPKARPYIINRAGYAGIQRYAQVWAGDNLTDWRTVKFNIATIMGMGLSGMSNAGCDIGGFAGPAPGGELLLRWIQNGIFQPRFCINSANNDNTVTQPWMYEENLPYVQAAYAQRYRMIPYLYSVMRESHENGMPVMRPLFLEFPEDVKCYRDQNLTFMFGPSVLVANVVEKGAITRTIYLPKGTTWYDMNDNFKAYEGGQTIELPVDLSSIPMFLRGSAVYMTTEDIHHIAKDTMKALDLFVSCEEDAEFTYYDDDGWSKEYEEGNFAETKISVKAGDRKQIHFHKNGFYQESWENLNLNVVSKEKGAYWVSVDGEKIPRFLIRDAFDEAETGWYYDMSDRIVKVKCKKPQKDDFEIVVSCEKFDLIGMENEI,not soluble
2,MKYDLIIIGSGSVGAAAGYYATRAGLNVLMTDAHMPPHQHGSHHGDTRLIRHAYGEGEKYVPLVLRAQMLWDELSRHNEDDPIFVRSGVINLGPADSTFLANVAHSAEQWQLNVEKLDAQGIMARWPEIRVPDNYIGLFETDSGFLRSELAIKTWIQLAKEAGCAQLFNCPVTAIRHDDDGVTIETADGEYQAKKAIVCAGTWVKDLLPELPVQPVRKVFAWYQADGRYSVKNKFPAFTGELPNGDQYYGFPAENDALKIGKHNGGQVIHSADERVPFAEVVSDGSEAFPFLRNVLPGIGCCLYGAACTYDNSPDEDFIIDTLPGHDNTLLITGLSGHGFKFASVLGEIAADFAQDKKSDFDLTPFRLSRFQ,soluble
3,MSLNFLDFEQPIAELEAKIDSLTAVSRQDEKLDINIDEEVHRLREKSVELTRKIFADLGAWQIAQLARHPQRPYTLDYVRLAFDEFDELAGDRAYADDKAIVGGIARLDGRPVMIIGHQKGRETKEKIRRNFGMPAPEGYRKALRLMQMAERFKMPIITFIDTPGAYPGVGAEERGQSEAIARNLREMSRLGVPVVCTVIGEGGSGGALAIGVGDKVNMLQYSTYSVISPEGCASILWKSADKAPLAAEAMGIIAPRLKELKLIDSIIPEPLGGAHRNPEAMAASLKAQLLADLADLDVLSTEDLKNRRYQRLMSYGYALEHHHHHH,not soluble
4,MAHHHHHHMLRQCERLIVQLSQQVLEQEKDIHSLRAALHSSQNRRRRHRQRGGDEKRERAAAVSMAESFSVSTERRQHHHTHHITVKAPTQMTMTHEDSRLRLTLPSSMTPQVSPIHLSGDAGVDSATGPYPEAAVVAPHSPQSSGAGSAVPSPTRSVGKSSGEHGMAAALAFPSIVCDVSSFSDKTNVGLTPSAACDHPPSGESATADGLWASSLLSEPERSSSSSSLARHRRNTAQLTRNAQFETPRVNLDNQDAMSYLLCIFSSAKSTREADGGATAAMAEAGEAAPCGREHRGGAGVRSPNAPLQQQGEHVARRLFHLDPVDENEGSESGNEHSSGGAVSDYDRPAARRPFLPPLRDKRGDGDGSAPPNHKTCGAFDEDDAFLQERYARIVACALAAEFAASTTLVEEDEVEQQRGCKTGPRAPTAAWCRTTSRRDHSASATVSELLRLFTFQPATRHQPYSDGKGL,not soluble
5,MRTIYVIGIGTGSPEFLTLQAISGLRHAQAIVALDKGEQKSDLLALRQKIVDTHAPGTPIYAVTDPERDRNPDNYEEEVRRWHAERAHLLASTIRERTPDDGAVAFLVWGDPSLYDSTLRIIEHMRNLEDLHADVKVIPGITAVQVLTAEHGILINRIGEAIHITTGRNLPETSAKDRRNCVVMLDGKTAWQDVATEHTYMWWGAFLGTEQQVLRKGYVHEIGAQVAELKQQLRTEHGWIMDTYLLRELD,soluble
6,MPEVSFIICTRNRVAVLEACLKSVQAACRAHAGFAAELVVVDNGSSDRTAERLASIAAMSDIPFTPVSEPRRGLAAARNAGLRRARGRVLVFVDDDCAVHCDYLRDLERHYASGEQGLIRGGRVELGDPRDLPFTIKRSRVCERLTPDIHPGGFVLGCNMTMHRDVAARIGDFDERFGAGGPLRSAEDTDYLVRAVLLGIPVEYVPDMTIFHHHGRRDRKAIEKLHRDYSLGNGGLCLKHIRHAPWLLRHFYWAARGALRELAGGPAFDRDLDLSHRPIVGMNVLGAARYALLLLARRPQAEPARQDQQANAEAPLLEHHHHHH,not soluble
7,MSLGEQTTISDSKGLFHKEFPYVIPPVYRKVLDEYLVELNLLSNQSNFKIDTIFSYGLIISFERFTVGYEPDSHISKILESLCNSCNIDIKAIKEYSNNIKKLINEKGIKEIINILTAEIKKSVGGIALSNQSGKDKYYSRLHAIGIYELISNINEDKKEGDDKEIISECVEALGFSKDRVEKDINQYKNSMEKIKEMMELIKLTVEETKRKAKLNEGHHHHHH,soluble
8,VGQMVAVNGYKISVFVKGQGSQTLVFLSGAGTASPILDFKDVYDGFSKEYKIVVVERADYGYSEDTSKSRDVSVILSETRQSLAKSQVSGPYIILSHSMASLETLLWQENYPSEVKAVVCLDWAFPESYFQLKRHPQMLRLARWESQLGLLRLLPRQLYMPNENLSDSDRRLYQEIAYRQLLSQAMLNESLCAKENDKKVNSTSIKSQMPVLLMVSNGKGTGFGQEQWRHYATSFAKGQKNMEVTYYDSPHYFYHYQTKEMIRSIEEFVQETTD,not soluble
9,MSGVRAVRISIESACEKQVHGVGLDGTETYLPPLSMSQNLARLAQRIDFSQGSGSEEGEAAGTEGDAQDWPGAGSSADQDDEEGVVKFQPSLWPWDSVRNNLRSALTEMCVLYDVLSIVRDKKFMTLDPVSQDALPPKQVFVDFNLEHHHHHH,not soluble
10,MSLTPIEAMKLAAGEIAGEKSLKTLAEVVDILSQEQDVTKRFGQKGLGQRNLGRAVQLLVESSETNEGRCMVAYDVFKSLERIVLDYVPDQNDRAKYLEDLKIAKGLYRERIMTEMFNAYMDEPYAVKKDVMNYVNMIIGIDAESLGPDRMWKYKDPQTGELKALKIDERYVKNVEDRLGLKTDEQRESFRTSIRKIYGQKISVDSTYDFMDNLELVKAVTDVRLKSDIAGAGSLIGALANRTNEENQKLYDRMVDTMLKKLGYCRTCAQKTIEYFCTQEDEGHHHHHH,soluble
11,MWLRDPFPRLYPDGDFQMACDRFFGNPYDSDNWVNGGFTYVRSNNRSIEFYKFWHKSRLDYPDLHDQDVFNRIKHEPFISEIGIQMRFFDTVYFGGFCQTSRDINLVCTMHANCCIGLDKKLHDLNLVLDDWRKYLSLSEPVQNTTWSVPMKCLED,not soluble
12,MGSDKIHHHHHHMMFKQVQQDFMDYIRDPNQPLPKGIEPRRMKIYRDLFFNNLDGFVSSAFPVLKSLYASDDWQLLVQAFFVNHDCQSPIFMDIAAEFLQFLQTEYQTKESDPGFMLELAHYEWLELVVAVAQEDEQLMTLSQDEVKTAKMCLNSTARVAQYHFDVQHISVDYQPVEPTPQGQFFCVYRDNADEVAFLQLSPLSAQVLAYLEQSQQSTLLELCHWLAGLYPNMATEQLNQGAFGLLAQLADKGIVKTRA,not soluble
13,MSSVELPQVMDDNLISRRKKIMQSIEDIRGKKAEIAQALRELGVGKPQENESVKEDMKLLLAAFDSISAQEAQYMDILKTIVGIHEQATLDIAKDFEKKIEDDAQKLKEQKEKQEEDATEEDENAEKTPEEQANSEVIAELQEALLELKQVSEAAVAASELNEKLVERLQLTKRKKSAMMEVRAKKAKDLDDVATKVRAEVMERINKMAALKKTTTKQEKELKELQKQCLQLGLQLGTDENREIDPAAEEALLDDNQRVPVIVETQEKPDLNDEEKEKRREEIRENIKKEMEKKEQVNTLIREKLASMNARRKRLQEIRKMLEKQEHEKEKLDAAISNSAVAVQNDGEGIALTPETPRPSQEDEAEAPAAAETTVVSAPVAASEDIDEEEDGEVTEKSLDDILENARANLSNLTAMRERLEHIKETGGADLNEDDLTLLERLDNVALEEDEKLTPTP,soluble
14,MNTKLPLDLFNQAKRSASQDQPALFSWVTELDELVSPVKLFKKAGTAFKGERFFWQNPEMTLTMTGFGVTKQFLAEKKKDAFLGLQEKIEKRLRTSVTNATVDATGPVYFGGFAFDPERDTEKEWQSFKDGLFYLPLFMLTNKDGKSYLTVNLSIYSDDTESKLEAVFNQWQKIIHQEVNEAEMALLTDFKEIGKDHFLETASEIIDMINHSEDVKKVVLARRMGLRFQRQVDSAIILENMLATQENSYFFLIEKGTGVFFGATPERLLAVNGDEIHSSCVAGSTERGATEEADEALGNALLKDAKNLREHSYVVQMMEETLKPFTTGLSLSSQPVLLKNRDIQHLYMNITAKKKPDVSMLEMVKALHPTPALGGLPQKMGLAIIRMKEEMDRGFYGAPIGWVDLKGSGEFAVAIRSGLIVDSQGLIYAGCGIVGDSVPKEELQETAVKFQPMLRVLGGIKK,not soluble
15,MAQIDFRKKINWHRRYRSPQGVKTEHEILRIFESDRGRIINSPAIRRLQQKTQVFPLERNAAVRTRLTHSMEVQQVGRYIAKEILSRLKELKLLEAYGLDELTGPFESIVEMSCLMHDIGNPPFGHFGEAAINDWFRQRLHPEDAESQPLTDDRCSVAVLRLRDGEEPLNELRRKIRQDLCHFEGNAQGIRLVHTLMRMNLTWAQVGGILKYTRPAWWRGETPETHHYLMKKPGYYLSEEAYIARLRKELNLALYSRFPLTWIMEAADDISYCVADLEDAVEKRIFTVEQLYHHLHEAWGQHEKGSLFSLVVENAWEKSRSNSLSRSTEDQFFMYLRVNTLNKLVPYAAQRFIDNLPAIFAGTFNHALLEDASECSDLLKLYKNVAVKHVFSHPDVEQLELQGYRVISGLLEIYRPLLSLSLSDFTELVEKERVKRSPIESRLFHKLSTRHRLAYVEAVSKLPSDSPEFPLWEYYYRCRLLQDYISGMTDLYAWDEYRRLMAVEQ,not soluble
16,MGSDKIHHHHHHMMAVAHKGEAQFDFYWRQQGEWVEEPNQRRGGESGVQRLNDADGKLLYAKRQVGHIYRSLLHPFGRPTVLRELDALNSFEQLGVRVPRIVFCGAQRDAEHQWRALLVSEALDGFVELDTWHAEGARERYPQVVHERMLKDLADNLARMHLGHWQHGCLYGKHVFIKVIGEGEQARVEVALLDLEKCRRRISCQRAAGNDLRQLRRHSSLNDAEWRTLLYFYKMAFGSAVKGLE,not soluble
17,MEEYEFLVRVREAGGFDIEHLMDTKPSSCVIGCREFDNNDDYNAHIVLFARMGIHKYNMIQGTNLQLSCVEKYNYRSPRVYSAFYITLIAKDPDACNSLVTFQTRVVEEGFNMTKLSCNIARPKPGPQENAALPRHSVDLEPVKKSELLTHDWIRLYMELAFLKAHLRSPKNPNLSKLVIVMVAIETKDNMEPPSERLKARNAFFYIKYKYHANKGRGPKRRLGHKTPDRIAIVRRTLDKNTGYLTLEFPEPIL,soluble
18,MHIERLDFENSPYLGVFGVATDRVVLIREGLQEKKLEVIRETLKVPVIEVSVMKSRIIGTLATGNSNAIILPWYVWDAEIERIKKALSEYGIDMEVVPFRSKYTALGNLILTNDKAALVSAKFSRKEAQEIGEILGVEVERGVIAGLHAVGSAGVVTNKGGLVHPETSDEELEWLSDLFKVDVYVGTANMGVPYVGTCMLANSNGVVVGHLTTGPEIVKIEEALGFV,soluble
19,IVVYTDREVYGAVGSQVTLHCSFWSSEWVSDDISFTWRYQPEGGRDAISIFHYAKGQPYIDEVGTFKERIQWVGDPSWKDGSIVIHNLDYSDNGTFTCDVKNPPDIVGKTSQVTLYVFEKVPTR,soluble
